Test results from US20230265175A1 (Merck Sharp & Dohme, published 2023).

Legend:
[1] = biological target: T1, tau species in African Green Monkey (AGM) CSF (African Green Monkey); experiment: competitive ELISA, fresh AGM CSF (75 µl of neat CSF); competitor biotinylated Ta1505-mIgG2a
T1 construct: also called Fresh African Green Monkey (AGM) CSF
Description: Binding affinities of various anti-tau-pS413 antibodies described herein for endogenous tau species were determined in brain homogenates and CSF samples from AD patients and preclinical models. Briefly, samples were pre-incubated with different concentrations of various anti-tau-pS413 antibodies, or respective isotype controls. Following a one-hour pre-incubation period, the antigen-antibody (Ag-Ab) mixture was added to plates pre-coated with a total tau capture antibody (Innotest ELISA kit).
Tissue homogenates were prepared using 1% sarkosyl buffer with several high-speed centrifugation steps to enrich for insoluble proteins including tau.

[2] = biological target: recombinant phosphorylated tau protein monomer (35 AWM); experiment: competitive ELISA, 35 AWM (1 ng); free tau-pS413 detected with biotinylated Ta1505-mIgG2a (competitor)

Binder | EC50 [1] [nM] | EC50 [2] [nM]
HmzTa1505-hIgG4-S228P (antibody) heavy: not shown light: DIVMTQSPLSLPVTLGEPASISCRSSQNIVHSNANTYLEWYLQKPGQSPQLLIYTVSNRFSGVPDRFSGSGSGTDFTLKISRVEAEDLGVYYCFQGSHLPLTFGGGTKVEIKRTVAAPSVFIFPPSDEQLKSGTASVVCLLNNFYPREAKVQWKVDNALQSGNSQESVTEQDSKDSTYSLSSTLTLSKADYEKHKVYACEVTHQGLSSPVTKSFNRGEC | 2.08 | 6.73
V8-AFM-hIgG1-LALA-YTE (antibody, also called V8-AFM-IgG1-LALA-YTE) heavy: EVQLVESGGGLVQPGGSLRLSCAASGFTFSSFALNWVRQAPGKGLEWVGHIRSETNNYVTFYAASVKGRFTVSRDDSQNTAYLQMNSLKTEDTATYYCVRRGPRDSWFGYWGQGTLVTVSSASTKGPSVFPLAPSSKSTSGGTAALGCLVKDYFPEPVTVSWNSGALTSGVHTFPAVLQSSGLYSLSSVVTVPSSSLGTQTYICNVNHKPSNTKVDKKVEPKSCDKTHTCPPCPAPEAAGGPSVFLFPPKPKDTLYITREPEVTCVVVDVSHEDPEVKFNWYVDGVEVHNAKTKPREEQYNSTYRVVSVLTVLHQDWLNGKEYKCKVSNKALPAPIEKTISKAKGQPREPQVYTLPPSRDELTKNQVSLTCLVKGFYPSDIAVEWESNGQPENNYKTTPPVLDSDGSFFLYSKLTVDKSRWQQGNVFSCSVMHEALHNHYTQKSLSLSPGK light: DIVMTQSPLSLPVTLGEPASISCRSSQKIVHRNANTYLEWYLQKPGQSPQLLIYTVSNRFSGVPDRFSGSGSGTDFTLKISRVEAEDLGVYYCFQGSYLPLTFGGGTKVEIKRTVAAPSVFIFPPSDEQLKSGTASVVCLLNNFYPREAKVQWKVDNALQSGNSQESVTEQDSKDSTYSLSSTLTLSKADYEKHKVYACEVTHQGLSSPVTKSFNRGEC | 0.008 | 0.055
